Reference: US20050106647A1
Read-outs that look alike come from different tables or passages of the source.

Columns and labels:
[1] = target: PA-BODIPY conjugate (Bacillus anthracis protective antigen conjugated to BODIPY FL) (Bacillus anthracis) (UniProt P13423)
[2] = target: PA-BODIPY conjugate (Bacillus anthracis protective antigen conjugated to BODIPY FL) (Bacillus anthracis) (UniProt P13423); remark: listed apart in the source

Sequence of PA-BODIPY conjugate (Bacillus anthracis protective antigen conjugated to BODIPY FL) (Bacillus anthracis) (P13423 30-764 limits assumed): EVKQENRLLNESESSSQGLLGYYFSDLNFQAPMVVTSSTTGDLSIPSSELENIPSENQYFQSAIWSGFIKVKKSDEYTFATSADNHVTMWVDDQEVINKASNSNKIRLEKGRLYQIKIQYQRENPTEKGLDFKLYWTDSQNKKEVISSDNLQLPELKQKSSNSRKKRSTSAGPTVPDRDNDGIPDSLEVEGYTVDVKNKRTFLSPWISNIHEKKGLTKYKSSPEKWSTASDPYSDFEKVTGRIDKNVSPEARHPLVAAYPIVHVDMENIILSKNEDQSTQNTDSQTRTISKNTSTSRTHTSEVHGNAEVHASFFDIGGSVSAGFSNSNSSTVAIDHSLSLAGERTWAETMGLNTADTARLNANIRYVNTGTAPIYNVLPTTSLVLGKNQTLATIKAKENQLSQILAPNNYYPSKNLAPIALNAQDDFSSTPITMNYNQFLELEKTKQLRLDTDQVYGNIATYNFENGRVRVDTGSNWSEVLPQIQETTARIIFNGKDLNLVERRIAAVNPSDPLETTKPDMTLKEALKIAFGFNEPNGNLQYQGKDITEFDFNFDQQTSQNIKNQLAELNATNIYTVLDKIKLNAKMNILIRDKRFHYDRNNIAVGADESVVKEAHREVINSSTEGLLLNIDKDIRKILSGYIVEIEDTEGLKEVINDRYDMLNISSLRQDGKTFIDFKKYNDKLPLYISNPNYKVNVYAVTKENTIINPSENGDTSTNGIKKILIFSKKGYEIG
Sequence of NlpA-[Dig scFv] (26-10 anti-digoxin/digoxigenin scFv) fusion anchored on the E. coli inner membrane (P04846 whole entry, looked up, the tested form may be a part): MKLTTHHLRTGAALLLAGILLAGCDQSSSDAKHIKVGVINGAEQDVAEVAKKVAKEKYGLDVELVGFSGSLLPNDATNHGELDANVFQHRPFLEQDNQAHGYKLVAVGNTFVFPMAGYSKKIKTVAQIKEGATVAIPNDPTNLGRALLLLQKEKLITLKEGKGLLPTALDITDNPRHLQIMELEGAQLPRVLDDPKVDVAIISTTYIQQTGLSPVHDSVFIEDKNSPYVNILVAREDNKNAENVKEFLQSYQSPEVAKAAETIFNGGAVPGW
Sequence of 26-10 anti-digoxin/digoxigenin scFv-g3p fusion (pAK200) (P69168 268-424): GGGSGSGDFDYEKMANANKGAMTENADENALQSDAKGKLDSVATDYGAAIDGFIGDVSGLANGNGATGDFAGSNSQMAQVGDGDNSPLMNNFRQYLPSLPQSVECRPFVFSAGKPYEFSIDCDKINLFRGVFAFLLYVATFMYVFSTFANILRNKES

Substance: 26-10 anti-digoxin/digoxigenin scFv-g3p fusion (pAK200) (from UniProt P69168 268-424)
- mean fluorescence (M) [1]: 7.25

Substance: NlpA-[Dig scFv] (26-10 anti-digoxin/digoxigenin scFv) fusion anchored on the E. coli inner membrane (from UniProt P04846 24-29)
- mean fluorescence (M) [1]: 4.48
- mean fluorescence (M) [2]: 2.97
